The target in one experiment is T1, human CD40 (human, UniProt P25942 21-277).
T1 construct: whole, on cells; The assay was on primary human blood DCs; also called hCD40
In words: flow cytometry on purified human blood mDCs, detection with anti-human IL-10. On the procedure:
(§1) The ability of antibody-IL-10 fusion proteins to bind to human DCs was measured. Both myeloid DC (mDCs) and plasmacytoid DCs (pDCs) were purified from human blood. DCs were incubated for 20 min in ice in the presence of different concentrations of recombinant fusion proteins of antibody and IL-10 (FIG. 1). After vigorous washing, DCs were further stained with anti-human IL-10 to detect surface bound antibody-IL-10 fusion proteins using flow cytometry.
Background: Flow cytometry measures light scatter and fluorescence of single cells or particles in a stream.

The target of a further experiment is T2, human DCIR (human, UniProt Q9UMR7 1-237).
T2 construct: whole, on cells; The assay was on primary human blood DCs
T2 sequence (looked up): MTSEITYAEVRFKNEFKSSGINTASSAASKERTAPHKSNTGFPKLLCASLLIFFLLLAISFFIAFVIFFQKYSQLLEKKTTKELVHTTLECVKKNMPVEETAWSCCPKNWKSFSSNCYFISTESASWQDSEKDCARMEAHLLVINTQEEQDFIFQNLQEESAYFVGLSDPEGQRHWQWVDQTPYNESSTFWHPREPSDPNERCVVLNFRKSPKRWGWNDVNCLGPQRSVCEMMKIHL
In words: flow cytometry on purified human blood pDCs, detection with anti-human IL-10. On the procedure:
as §1

T1 sequence (P25942 21-277): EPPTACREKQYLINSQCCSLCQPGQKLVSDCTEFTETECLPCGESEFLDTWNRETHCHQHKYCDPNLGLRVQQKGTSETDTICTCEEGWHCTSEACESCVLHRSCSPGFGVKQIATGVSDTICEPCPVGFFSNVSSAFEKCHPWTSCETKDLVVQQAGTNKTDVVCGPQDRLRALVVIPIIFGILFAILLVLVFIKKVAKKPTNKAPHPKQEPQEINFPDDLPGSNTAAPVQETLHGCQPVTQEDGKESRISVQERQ

B1: manti-hCD40_24A3.3F1_H-LV-hIgG4H-C-Flex-v1-hIL-10 antibody (antibody)
heavy: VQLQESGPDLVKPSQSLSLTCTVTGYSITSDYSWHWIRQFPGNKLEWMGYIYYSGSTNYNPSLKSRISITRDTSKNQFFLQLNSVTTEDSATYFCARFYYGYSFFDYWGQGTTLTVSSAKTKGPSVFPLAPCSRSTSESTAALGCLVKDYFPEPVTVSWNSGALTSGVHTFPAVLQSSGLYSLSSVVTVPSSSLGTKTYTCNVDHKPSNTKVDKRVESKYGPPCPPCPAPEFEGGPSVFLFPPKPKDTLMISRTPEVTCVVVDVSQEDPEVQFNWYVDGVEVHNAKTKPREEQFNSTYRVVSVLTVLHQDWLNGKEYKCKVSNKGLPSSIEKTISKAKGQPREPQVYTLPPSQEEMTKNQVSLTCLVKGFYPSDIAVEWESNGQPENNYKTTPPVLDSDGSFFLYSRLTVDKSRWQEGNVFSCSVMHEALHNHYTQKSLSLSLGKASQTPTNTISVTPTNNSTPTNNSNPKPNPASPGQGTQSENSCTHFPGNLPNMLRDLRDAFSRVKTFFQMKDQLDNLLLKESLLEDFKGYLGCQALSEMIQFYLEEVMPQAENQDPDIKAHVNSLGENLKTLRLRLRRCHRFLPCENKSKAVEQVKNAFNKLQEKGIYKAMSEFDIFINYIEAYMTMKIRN
light: QIVLTQSPAFMSASPGEKVTMTCSASSSVSYMHWYQQKSGTSPKRWIYDTSKLASGVPARFSGSGSGTSYSLTISSMEAEDAATYYCQQWSSNPLTFGAGTKLEIKRTVAAPSVFIFPPSDEQLKSGTASVVCLLNNFYPREAKVQWKVDNALQSGNSQESVTEQDSKDSTYSLSSTLTLSKADYEKHKVYACEVTHQGLSSPVTKSFNRGECAS
notes: Mouse/human chimeric IgG4 kappa antibody with human IL-10 fused through a linker to the C-terminus of the heavy chain; also called anti-CD40 (24A3)-IL-10; Anti-CD40-24A3-hIL-10
With B1, the binding result in the experiment with human CD40 is “binds”.

B2: mAnti-DCIR_9E8_H-LV-hIgG4H-C-Flex-v1-hIL-10 antibody (antibody)
heavy: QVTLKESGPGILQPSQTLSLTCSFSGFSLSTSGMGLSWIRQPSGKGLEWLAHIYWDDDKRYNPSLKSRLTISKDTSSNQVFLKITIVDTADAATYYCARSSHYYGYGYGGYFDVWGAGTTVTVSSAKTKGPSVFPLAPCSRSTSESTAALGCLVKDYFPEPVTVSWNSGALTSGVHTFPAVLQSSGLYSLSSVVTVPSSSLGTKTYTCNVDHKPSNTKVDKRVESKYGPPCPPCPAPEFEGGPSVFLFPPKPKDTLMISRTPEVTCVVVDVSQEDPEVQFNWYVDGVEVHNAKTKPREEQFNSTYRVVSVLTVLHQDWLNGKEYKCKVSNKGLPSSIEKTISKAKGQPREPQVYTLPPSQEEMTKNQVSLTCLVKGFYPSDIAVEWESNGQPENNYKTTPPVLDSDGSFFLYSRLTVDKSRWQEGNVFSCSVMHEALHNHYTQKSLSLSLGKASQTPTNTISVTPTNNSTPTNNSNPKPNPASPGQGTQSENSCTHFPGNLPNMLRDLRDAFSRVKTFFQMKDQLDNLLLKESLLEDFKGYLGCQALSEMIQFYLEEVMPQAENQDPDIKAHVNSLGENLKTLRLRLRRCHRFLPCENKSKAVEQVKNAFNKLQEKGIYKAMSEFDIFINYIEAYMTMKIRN
light: NIVLTQSPASLAVSLGQRATISCRASESIHSYGNSFLHWYQQKPGQPPKLLIYLASNLESGVPARFSGSGSRTDFTLTIDPVEADDAATYYCQQNNEDPWTFGGGTKLEIKRTVAAPSVFIFPPSDEQLKSGTASVVCLLNNFYPREAKVQWKVDNALQSGNSQESVTEQDSKDSTYSLSSTLTLSKADYEKHKVYACEVTHQGLSSPVTKSFNRGEC
notes: Mouse/human chimeric IgG4 kappa antibody with human IL-10 fused through a linker to the C-terminus of the heavy chain; also called anti-DCIR (9E8)-IL-10; Anti-DCIR-9E8-hIL-10
Consider B2, for which the binding result with human DCIR is on record as “binds”.

Source of the values: patent publication US20170106051A1 (BAYLOR RESEARCH INSTITUTE, published 2017).
